# Laboratory results from article PMC5691159 (Nature Communications, 2017).
# T1: PfRh5 protein (P. falciparum, UniProt Q8IFM5 25-526)
# T1 sequence: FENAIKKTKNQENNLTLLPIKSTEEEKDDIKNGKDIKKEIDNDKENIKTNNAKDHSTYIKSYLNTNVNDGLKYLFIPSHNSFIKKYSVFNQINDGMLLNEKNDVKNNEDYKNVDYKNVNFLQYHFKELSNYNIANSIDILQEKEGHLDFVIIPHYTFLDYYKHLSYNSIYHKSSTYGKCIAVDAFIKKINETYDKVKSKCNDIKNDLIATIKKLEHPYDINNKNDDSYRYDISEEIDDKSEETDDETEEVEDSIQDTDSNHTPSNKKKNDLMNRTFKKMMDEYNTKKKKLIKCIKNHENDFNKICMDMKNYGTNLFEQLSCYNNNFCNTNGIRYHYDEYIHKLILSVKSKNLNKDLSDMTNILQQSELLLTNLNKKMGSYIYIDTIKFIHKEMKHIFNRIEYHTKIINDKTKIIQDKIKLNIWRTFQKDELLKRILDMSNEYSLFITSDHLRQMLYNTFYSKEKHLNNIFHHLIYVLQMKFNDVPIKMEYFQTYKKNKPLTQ
# Tests used:
# [1] = biological target: PfRhopH3 on the P. falciparum merozoite surface (P. falciparum (endogenous in merozoites)) (UniProt Q8I395); assay: immunostaining of cells or tissue; free merozoites incubated with 25 µM Cyclophilin B for 2 h at RT, with or without pre-incubation with rabbit anti-PfRhopH3 or anti-Rap2b antibody (1:25, 15 min); bound CypB stained and its fluorescence intensity measured by confocal microscopy (mean of ten merozoites)
# Chain of PfRhopH3 on the P. falciparum merozoite surface (P. falciparum (endogenous in merozoites)) (Q8I395 25-897): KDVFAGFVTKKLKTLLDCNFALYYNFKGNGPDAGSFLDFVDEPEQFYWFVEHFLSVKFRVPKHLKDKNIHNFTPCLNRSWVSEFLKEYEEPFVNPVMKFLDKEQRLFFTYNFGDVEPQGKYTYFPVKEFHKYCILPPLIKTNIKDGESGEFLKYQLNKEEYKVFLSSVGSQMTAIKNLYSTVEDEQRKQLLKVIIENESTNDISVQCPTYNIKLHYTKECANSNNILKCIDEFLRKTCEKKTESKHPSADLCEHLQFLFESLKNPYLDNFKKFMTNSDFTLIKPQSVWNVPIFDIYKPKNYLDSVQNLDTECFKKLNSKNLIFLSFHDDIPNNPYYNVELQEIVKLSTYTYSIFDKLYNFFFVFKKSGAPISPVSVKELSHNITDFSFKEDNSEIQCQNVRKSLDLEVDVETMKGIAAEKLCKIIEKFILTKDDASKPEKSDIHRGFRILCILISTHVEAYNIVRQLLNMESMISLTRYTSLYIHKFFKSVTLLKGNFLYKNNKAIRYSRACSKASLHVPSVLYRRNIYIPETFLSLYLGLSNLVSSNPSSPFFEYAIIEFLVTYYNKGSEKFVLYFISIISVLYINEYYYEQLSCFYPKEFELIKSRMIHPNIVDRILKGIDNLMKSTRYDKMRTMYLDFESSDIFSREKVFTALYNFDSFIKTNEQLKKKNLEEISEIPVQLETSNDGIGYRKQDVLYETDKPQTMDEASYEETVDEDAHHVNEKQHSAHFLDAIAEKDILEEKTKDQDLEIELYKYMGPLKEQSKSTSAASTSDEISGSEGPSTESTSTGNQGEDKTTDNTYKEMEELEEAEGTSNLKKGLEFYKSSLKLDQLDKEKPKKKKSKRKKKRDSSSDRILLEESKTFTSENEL
# [2] = biological target: recombinant Cyclophilin B (Sino Biological) (human); assay: SPR; Biacore T200, 25 °C; CypB (200 RU) amine-coupled on CM5 chip; analyte injected at 30 µl/min; running buffer 50 mM HEPES, 150 mM NaCl, 5 mM MgCl2, pH 7.4; 1:1 (Langmuir) model
# [3] = biological target: PfRh5 (Plasmodium falciparum) (UniProt Q8IFM5); conditions: cited from earlier work
# PfRh5 protein = biological target: T1, PfRh5 protein; assay: SPR; Biacore T200, 25 °C; […]; running buffer 50 mM HEPES, 150 mM NaCl, 5 mM MgCl2, pH 7.4; 1:1 model; conditions: both partners purified
# [4] = biological target: recombinant Cyclophilin B (Sino Biological) (human); assay: SPR; Biacore T200, 25 °C; […]; running buffer 50 mM HEPES, 150 mM NaCl, 5 mM MgCl2, pH 7.4; 1:1 (Langmuir) model
molecule,measurement,setting,value
recombinant Cyclophilin B (Sino Biological) (natural protein),reduction of binding to merozoites after treatment with anti-RhopH3-C antibody,[1],> 50%
"recombinant Basigin (BSG/CD147, Sino Biological) (from UniProt P35613 138-325) (receptor)",Kd,[2],430 nM
Basigin (from UniProt P35613),Kd,[3],1120 nM
recombinant PfRhopH3-C protein (aa 617–865) with C-terminal hexa-Histidine tag (domain or fragment) QLSCFYPKEFELIKSRMIHPNIVDRILKGIDNLMKSTRYDKMRTMYLDFESSDIFSREKVFTALYNFDSFIKTNEQLKKKNLEEISEIPVQLETSNDGIGYRKQDVLYETDKPQTMDEASYEETVDEDAHHVNEKQHSAHFLDAIAEKDILEEKTKDQDLEIELYKYMGPLKEQSKSTSAASTSDEISGSEGPSTESTSTGNQGEDKTTDNTYKEMEELEEAEGTSNLKKGLEFYKSSLKLDQLDKEKP,Kd,PfRh5 protein,18 nM
same,Kd,[4],160 nM
